One test concerns L929 cells. In words: Apoptosis and necrosis assay (live/dead staining, active caspase-3, flow cytometry) in L929 cells. It is filed as cell-based, mouse. The procedure:
(§1) The cells were stained with live/dead cell staining kits (Invitrogen, Paisley, UK) instructed by the manufacturer's manual and fixed using cytofix/cytoperm fixation/permeabilization solution kits (BD Pharmingen, Oxford, UK). This was followed by intracellular staining with FITC-conjugated anti-caspase-3 antibody (Cell Signaling Technology, Danvers, Mass., USA). Cells were acquired on a CyAn flow cytometer (Beckman Coulter, Fullerton, Calif.) and data were analyzed using Flowjo (Tree Star Inc. Ashland, Oreg.).
On the technique in general: In flow cytometry, cells or beads pass a laser one at a time.

The target in test [1] is T1, TNF (Homo sapiens, UniProt P01375).
T1 construct: purchased Immunotools (Germany)
T1 sequence (P01375 77-233 limits assumed): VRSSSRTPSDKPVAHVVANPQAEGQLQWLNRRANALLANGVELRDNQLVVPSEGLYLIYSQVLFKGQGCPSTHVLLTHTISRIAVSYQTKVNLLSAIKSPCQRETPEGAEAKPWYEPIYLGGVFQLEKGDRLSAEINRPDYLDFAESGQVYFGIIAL
In words: ELISA screening of monoclonal antibodies for binding to TNF. The note with it: among 33 monoclonal antibodies. As to the method: A second antibody conjugated with HRP was used to detect the reaction. For the inhibition assay, TNFR1 or synovial fluids were added together with monoclonal antibodies.
(An ELISA detects its analyte on a solid surface through an enzyme-linked reagent.)

For test [2], the target named is T1, TNF. In words: Identification of binding epitope of the monoclonal antibody.
In test [3] the test system is TNF receptors on L929 cells. Kind of test: L929 cells immunofluorescence (confocal) microscopy of TNF/antibody binding to TNF receptors. It is filed as cell-based, mouse. As to the method: The cells were fixed with 4% paraformaldehyde (in PBS) for 10 min, blocked in a phosphate-buffer containing 0.5% BSA and 0.1% cold water fish-gelatin for 15 min and subsequently incubated with rabbit anti-TNFR1 antibodies (Abcam) for 1 hour. The cells were extensively washed in PBS and then incubated with the relevant secondary antibodies, which were conjugated with Alexa Fluor 488 or Alexa Fluor 568 21 (Invitrogen). PBS-washed specimens were then mounted in Gelvatol/DABCO (Sigma-Aldrich). DNA was counterstained with DAPI (Sigma-Aldrich). All samples were analyzed by fluorescent microscopy using a Nikon Eclipse 80i at 60×. Images were acquired with NIS-Elements AR3.0 software using a Hamamatsu camera.

The subject of test [4] is C28I2 cells (chondrocytes). In words: Apoptosis assay (active caspase-3) in C28I2 cells. It is filed as cell-based, human. The note with it: C28I2 cells stimulated by TNF. The procedure:
as §1

“Also recorded” adds a separate entry of the source.

As for `CN1C(=O)C(Cc2c[nH]c3ccccc23)NC1=S` (centres unmarked) [Nec-1, Necrostatin-1, reference compound], the “effect on necrosis caused by 244-12+TNF” value with L929 cells (L929 cells, added into 244-12+TNF) is given as “cell necrosis was conversed into apoptosis; also recorded: cell necrosis transformed into apoptosis”.

B1: 244-12: anti-TNF monoclonal antibody specifically binding QLVVPSE; light chain SEQ ID NO: 10, heavy chain SEQ ID NO: 21 (antibody, listed as Homo sapiens)
heavy: QIQLVQSGPELKKPGETVKISCKASGYTFTNYGMNWVKQAPGKGLKWMGWINTYTGEPTYADDFKGRFAFSLETSANTAYLQINNLRNEGMATYFCARHYRYAWFPYWGQGTLVTVSAAKTTPPSVYPLAPGCGDTTGSSVTLGCLVKGYFPESVTVTWNSGSLSSSVHTFPALLQSGLYTMSSSVTVPSSTWPSQTVTCSVAHPASSTTVDKKLEPSGPISTINPCPPCKECHKCPAPNLEGGPSVFIFPPNIKDVLMISLTPKVTCVVVDVSEDDPDVQISWFVNNVEVHTAQTQTHREDYNSTIRVVSTLPIQHQDWMSGKEFKCKVNNKDLPSPIERTISKIKGLVRAPQVYILPPPAEQLSRKDVSLTCLVVGFNPGDISVEWASNGHTEENYKDTAPVLDSDGSYFIYSKLNMKTSKWEKTDSFSCNVRHEGLKNYYLKKTISRSPGK
light: DIQMTQSPASLSASVGETVTITCRASGNIHIYLAWYQQKQGKSPQLLVYNAKTLADGVPSRFSGSGSGTQYSLKINSLQPEDFGSYYCQHFWSIPWTFGGGTKLEIKRADAAPTVSIFPPSSEQLTSGGASVVCFLNNFYPKDINVKWKIDGSERQNGVLNSWTDQDSKDSTYSMSSTLTLTKDEYERHNSYTCEATHKTSTSPIVKSFNRNEC
As to B1, in the test with TNF [1], the “binding to TNF by ELISA” value is given as “bound TNF the strongest”. Besides, the binding epitope result in the test with TNF [2] is given as “QLVVPSE”. Also, the “effect on binding of TNF to TNF receptors” value in test [3] (confocal microscopy, in the presence of TNF) was “does not affect the binding of TNF to cell surface receptors”. Further, the “direct binding of antibody to cell surface” value in test [3] (in the absence of TNF) is given as “can not directly bind to cell surface”. Besides, the “TNF-induced apoptosis (active caspase-3 expression)” value in the test with L929 cells (L929 cells stimulated by TNF) is on record as “apoptosis was inhibited; also recorded: blocks TNF-induced apoptosis”; in test [4], “blocks TNF-induced apoptosis”. Moreover, the “cell fate (apoptosis / survival / necrosis) of L929 cells” value in the test on L929 cells (L929 cells, TNF alone or antibody added with TNF) is listed as “necrosis of L929 cells occurred; also recorded: necrosis of L929 cell”.

(Values after US11319366B2, “Antibody facilitating programmed necrosis of cells and application thereof” (SHANGHAI JW INFLINHIX CO., LTD., priority 2015, dated 2022).)
